# According to publication PMC3397946, “Identification and Characterization of the Cognate Anti-Sigma Factor and Specific Promoter Elements of a T. tengcongensis ECF Sigma Factor”:
# T1: Tt-RpoE1 (Thermoanaerobacter tengcongensis MB4T, UniProt Q8RCT7 1-162)
# T1 sequence: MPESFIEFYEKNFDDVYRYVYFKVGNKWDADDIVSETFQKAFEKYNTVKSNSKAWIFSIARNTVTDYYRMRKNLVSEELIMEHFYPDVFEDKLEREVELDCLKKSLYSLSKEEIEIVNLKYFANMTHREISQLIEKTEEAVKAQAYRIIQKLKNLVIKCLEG
# T2: Tt-TolB-C (Thermoanaerobacter tengcongensis MB4T, UniProt Q8RCT8 62-645)
# T2 sequence: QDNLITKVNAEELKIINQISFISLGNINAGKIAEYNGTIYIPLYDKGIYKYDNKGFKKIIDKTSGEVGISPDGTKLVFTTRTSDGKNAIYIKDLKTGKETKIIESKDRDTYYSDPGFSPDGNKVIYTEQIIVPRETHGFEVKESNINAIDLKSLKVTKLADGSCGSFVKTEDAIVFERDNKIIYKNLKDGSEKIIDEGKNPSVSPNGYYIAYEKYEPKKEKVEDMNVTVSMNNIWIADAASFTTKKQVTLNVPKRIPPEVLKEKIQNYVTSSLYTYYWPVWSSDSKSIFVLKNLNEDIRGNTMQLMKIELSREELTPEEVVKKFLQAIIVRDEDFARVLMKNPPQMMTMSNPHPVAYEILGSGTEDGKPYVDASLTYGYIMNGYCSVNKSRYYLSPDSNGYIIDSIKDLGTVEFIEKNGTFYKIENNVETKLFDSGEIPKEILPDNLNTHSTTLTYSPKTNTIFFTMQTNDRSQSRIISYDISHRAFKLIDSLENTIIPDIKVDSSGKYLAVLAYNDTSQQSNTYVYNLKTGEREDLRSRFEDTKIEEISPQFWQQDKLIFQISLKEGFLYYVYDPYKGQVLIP
# T3: Tt-TolB (Thermoanaerobacter tengcongensis MB4T, UniProt Q8RCT8 1-645)
# T3 sequence: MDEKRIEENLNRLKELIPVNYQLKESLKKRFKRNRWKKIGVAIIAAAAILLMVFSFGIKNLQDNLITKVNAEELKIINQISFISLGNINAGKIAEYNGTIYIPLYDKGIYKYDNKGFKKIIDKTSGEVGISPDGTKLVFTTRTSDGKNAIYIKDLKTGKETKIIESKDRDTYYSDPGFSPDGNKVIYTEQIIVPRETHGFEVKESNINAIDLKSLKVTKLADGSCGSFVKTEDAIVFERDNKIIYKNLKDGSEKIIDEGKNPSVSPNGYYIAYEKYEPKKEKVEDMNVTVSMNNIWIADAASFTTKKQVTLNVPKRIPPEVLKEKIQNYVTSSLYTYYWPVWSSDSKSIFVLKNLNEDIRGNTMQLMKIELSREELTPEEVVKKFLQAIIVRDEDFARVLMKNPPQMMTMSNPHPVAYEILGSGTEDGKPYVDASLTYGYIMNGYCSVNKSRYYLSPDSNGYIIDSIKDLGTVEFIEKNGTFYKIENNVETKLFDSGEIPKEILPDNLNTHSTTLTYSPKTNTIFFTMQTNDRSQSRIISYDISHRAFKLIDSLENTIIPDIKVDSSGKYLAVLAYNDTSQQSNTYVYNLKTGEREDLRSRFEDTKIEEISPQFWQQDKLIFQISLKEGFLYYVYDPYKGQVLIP
# T4: Tt-RpoE1;Tt-TolB (Thermoanaerobacter tengcongensis …, UniProt Q8RCT7;Q8RCT8 1-162;1-645, |)
# T4 sequence 1: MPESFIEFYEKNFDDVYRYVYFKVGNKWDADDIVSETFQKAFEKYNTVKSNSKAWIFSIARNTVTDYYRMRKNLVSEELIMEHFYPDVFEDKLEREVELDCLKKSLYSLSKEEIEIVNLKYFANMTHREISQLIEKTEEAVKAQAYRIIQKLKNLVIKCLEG
# T4 sequence 2: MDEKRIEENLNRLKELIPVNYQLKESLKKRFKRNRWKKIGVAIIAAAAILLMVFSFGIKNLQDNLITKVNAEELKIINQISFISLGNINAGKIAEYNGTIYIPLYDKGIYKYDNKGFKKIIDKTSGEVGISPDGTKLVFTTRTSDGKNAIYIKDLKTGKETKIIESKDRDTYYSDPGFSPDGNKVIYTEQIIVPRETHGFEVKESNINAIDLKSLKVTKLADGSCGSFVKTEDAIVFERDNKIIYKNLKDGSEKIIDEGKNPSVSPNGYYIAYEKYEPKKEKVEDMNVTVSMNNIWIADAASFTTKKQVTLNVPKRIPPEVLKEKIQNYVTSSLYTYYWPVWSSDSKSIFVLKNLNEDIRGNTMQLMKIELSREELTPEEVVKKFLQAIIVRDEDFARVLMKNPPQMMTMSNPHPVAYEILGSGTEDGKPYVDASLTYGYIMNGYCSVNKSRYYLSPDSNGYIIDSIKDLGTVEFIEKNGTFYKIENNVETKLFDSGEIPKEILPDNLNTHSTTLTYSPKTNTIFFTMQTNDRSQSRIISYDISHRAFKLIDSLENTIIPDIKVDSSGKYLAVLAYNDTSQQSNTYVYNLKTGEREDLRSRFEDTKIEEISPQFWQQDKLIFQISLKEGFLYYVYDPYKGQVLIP
# T5: Tt-RpoE1 R69A (Thermoanaerobacter tengcongensis MB4T, UniProt Q8RCT7 1-162, R69A)
# T5 sequence: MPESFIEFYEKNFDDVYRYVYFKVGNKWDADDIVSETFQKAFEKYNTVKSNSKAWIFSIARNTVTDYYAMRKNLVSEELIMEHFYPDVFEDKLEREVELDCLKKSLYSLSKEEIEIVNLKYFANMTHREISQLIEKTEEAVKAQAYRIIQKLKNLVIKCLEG
# T6: Tt-RpoE1 Y67A (Thermoanaerobacter tengcongensis MB4T, UniProt Q8RCT7 1-162, Y67A)
# T6 sequence: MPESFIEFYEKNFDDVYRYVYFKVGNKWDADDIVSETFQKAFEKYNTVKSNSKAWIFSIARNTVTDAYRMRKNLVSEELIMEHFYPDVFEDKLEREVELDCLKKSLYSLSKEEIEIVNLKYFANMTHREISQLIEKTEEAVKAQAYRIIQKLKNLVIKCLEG
# Legend:
# Tt-RpoE1 [1] = biological target: T1, Tt-RpoE1; assay: EMSA; 5 uM protein; abolished; 50 mM Tris-HCl pH 8.0, 10 mM MgAc2, 30 mM NaCl, 1 mM DTT, 5% glycerol, 30 ug/ml BSA, 0.5 mM EDTA, 1 ug poly(dI-dC), 20 fmol probe in 20 ul, 25 C, 20 min; details: protein: recombinant; tags: His (pET28a); label: 5'-32P top strand; fork: top 3' overhang 10 nt
# Tt-RpoE1 [2] = biological target: T1, Tt-RpoE1; assay: EMSA; 5 uM protein; little effect; 50 mM Tris-HCl pH 8.0, 10 mM MgAc2, 30 mM NaCl, 1 mM DTT, 5% glycerol, 30 ug/ml BSA, 0.5 mM EDTA, 1 ug poly(dI-dC), 20 fmol probe in 20 ul, 25 C, 20 min; details: protein: recombinant, tags: His (pET28a), label: 5'-32P top strand
# Tt-TolB-C = biological target: T2, Tt-TolB-C; assay: EMSA; 5 uM, alone; 50 mM Tris-HCl pH 8.0, 10 mM MgAc2, 30 mM NaCl, 1 mM DTT, 5% glycerol, 30 ug/ml BSA, 0.5 mM EDTA, 1 ug poly(dI-dC), 20 fmol probe in 20 ul, 25 C, 20 min; details: protein: recombinant; tags: His (pET28a); label: 5'-32P top strand; fork: top 3' overhang 10 nt
# Tt-TolB = biological target: T3, Tt-TolB; assay: as above; details: protein: recombinant; tags: His (pET28a); label: 5'-32P top strand; fork: top 3' overhang 10 nt
# Tt-RpoE1;Tt-TolB = biological target: T4, Tt-RpoE1;Tt-TolB; assay: EMSA; 5 uM each; supershifted complex; 50 mM Tris-HCl pH 8.0, 10 mM MgAc2, 30 mM NaCl, 1 mM DTT, 5% glycerol, 30 ug/ml BSA, 0.5 mM EDTA, 1 ug poly(dI-dC), 20 fmol probe in 20 ul, 25 C, 20 min; details: protein: recombinant;recombinant; tags: His (pET28a);His (pET28a); label: 5'-32P top strand; fork: top 3' overhang 10 nt
# Tt-RpoE1 [3] = biological target: T1, Tt-RpoE1; assay: EMSA; 5 uM protein; 50 mM Tris-HCl pH 8.0, 10 mM MgAc2, 30 mM NaCl, 1 mM DTT, 5% glycerol, 30 ug/ml BSA, 0.5 mM EDTA, 1 ug poly(dI-dC), 20 fmol probe in 20 ul, 25 C, 20 min; details: protein: recombinant; tags: His (pET28a); label: 5'-32P top strand; fork: top 3' overhang 10 nt
# Tt-RpoE1 [4] = biological target: T1, Tt-RpoE1; assay: EMSA; 5 uM protein; abolition; 50 mM Tris-HCl pH 8.0, 10 mM MgAc2, 30 mM NaCl, 1 mM DTT, 5% glycerol, 30 ug/ml BSA, 0.5 mM EDTA, 1 ug poly(dI-dC), 20 fmol probe in 20 ul, 25 C, 20 min; details: protein: recombinant; tags: His (pET28a); label: 5'-32P top strand; fork: top 3' overhang 10 nt
# Tt-RpoE1 R69A = biological target: T5, Tt-RpoE1 R69A; assay: EMSA; 5 uM protein; affinity remained; 50 mM Tris-HCl pH 8.0, 10 mM MgAc2, 30 mM NaCl, 1 mM DTT, 5% glycerol, 30 ug/ml BSA, 0.5 mM EDTA, 1 ug poly(dI-dC), 20 fmol probe in 20 ul, 25 C, 20 min; details: protein: recombinant; tags: His (pET28a); label: 5'-32P top strand; fork: top 3' overhang 12 nt
# Tt-RpoE1 Y67A = biological target: T6, Tt-RpoE1 Y67A; assay: as above; details: protein: recombinant; tags: His (pET28a); label: 5'-32P top strand; fork: top 3' overhang 12 nt
# Tt-RpoE1 [5] = biological target: T1, Tt-RpoE1; assay: EMSA; 5 uM protein; parental; 50 mM Tris-HCl pH 8.0, 10 mM MgAc2, 30 mM NaCl, 1 mM DTT, 5% glycerol, 30 ug/ml BSA, 0.5 mM EDTA, 1 ug poly(dI-dC), 20 fmol probe in 20 ul, 25 C, 20 min; details: protein: recombinant; tags: His (pET28a); label: 5'-32P top strand; fork: top 3' overhang 12 nt
binder,measurement,setting,value
D-5-6c (-30C to T) (dsDNA) DNA 1: TGTTATCTTTTGTGTAGATTTTCGTCTATAAAGGTG DNA 2: GACGAAAATCTACACAAAAGATAACA,binding result,Tt-RpoE1 [1],no binding
D-5-7c (-29C to T) (dsDNA) DNA 1: TGTTACTTTTTGTGTAGATTTTCGTCTATAAAGGTG DNA 2: GACGAAAATCTACACAAAAAGTAACA,binding result,Tt-RpoE1 [2]; fork: top 3' overhang 10 nt,binds
T+1/B-10 (dsDNA) DNA 1: GGTATTGTTACCTTTTGTGTAGATTTTCGTCTATAAAGGTG DNA 2: GACGAAAATCTACACAAAAGGTAACAATACC,binding result,Tt-TolB-C,no binding
same,binding result,Tt-TolB,no binding
same,binding result,Tt-RpoE1;Tt-TolB,binds
same,binding result,Tt-RpoE1 [3],binds
D-5-M5 (-32TACC-29 to GGTT) (dsDNA) DNA 1: TGTGGTTTTTTGTGTAGATTTTCGTCTATAAAGGTG DNA 2: GACGAAAATCTACACAAAAAACCACA,binding result,Tt-RpoE1 [4],no binding
D-5/-12 (dsDNA) DNA 1: TGTTACCTTTTGTGTAGATTTTCGTCTATAAAGGTG DNA 2: CGAAAATCTACACAAAAGGTAACA,binding result,Tt-RpoE1 R69A,binds
same,binding result,Tt-RpoE1 Y67A,binds
same,binding result,Tt-RpoE1 [5],binds
D-5-B1C (-13C to T) (dsDNA) DNA 1: TGTTACCTTTTGTGTAGATTTTTGTCTATAAAGGTG DNA 2: CAAAAATCTACACAAAAGGTAACA,binding result,Tt-RpoE1 [2]; fork: top 3' overhang 12 nt,binds
D-5-b5t/-12 (-9T to G) (dsDNA) DNA 1: TGTTACCTTTTGTGTAGATTTTCGTCGATAAAGGTG DNA 2: CGAAAATCTACACAAAAGGTAACA,binding result,Tt-RpoE1 [2]; fork: top 3' overhang 12 nt,binds
